This is an account of results in patent US10428140B2, “Anti-EphA4 antibody” (EISAI R&D MANAGEMENT CO., LTD., priority 2015, dated 2019).

Residue numbers refer to the chain shown, from its start.

To fix the notation:
T1: human EphA10 (Homo sapiens, UniProt Q5JZY3)
T1 construct: a protein of the extracellular region of each human Eph receptor fused with the SEAP protein and the His tag; made in house; host or cells: Expi293F cells (culture supernatant)
T1 sequence (Q5JZY3 34-565 limits assumed): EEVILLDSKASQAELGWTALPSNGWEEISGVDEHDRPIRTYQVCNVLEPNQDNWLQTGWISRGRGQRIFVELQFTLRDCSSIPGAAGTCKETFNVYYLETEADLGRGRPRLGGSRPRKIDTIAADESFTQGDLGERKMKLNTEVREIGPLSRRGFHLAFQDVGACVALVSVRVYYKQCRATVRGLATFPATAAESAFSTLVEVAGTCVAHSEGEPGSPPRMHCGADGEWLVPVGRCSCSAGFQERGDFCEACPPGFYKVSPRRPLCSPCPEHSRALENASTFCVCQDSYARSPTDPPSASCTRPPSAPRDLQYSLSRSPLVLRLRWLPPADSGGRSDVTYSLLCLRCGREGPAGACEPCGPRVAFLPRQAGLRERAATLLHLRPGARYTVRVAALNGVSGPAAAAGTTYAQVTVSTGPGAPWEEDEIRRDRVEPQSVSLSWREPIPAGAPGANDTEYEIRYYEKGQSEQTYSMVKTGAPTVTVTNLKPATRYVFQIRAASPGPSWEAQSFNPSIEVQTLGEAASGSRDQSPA

T2: human EphB3 (Homo sapiens, UniProt P54753)
T2 construct: a protein of the extracellular region of each human Eph receptor fused with the SEAP protein and the His tag; made in house; host or cells: Expi293F cells
T2 sequence (P54753 34-559 limits assumed): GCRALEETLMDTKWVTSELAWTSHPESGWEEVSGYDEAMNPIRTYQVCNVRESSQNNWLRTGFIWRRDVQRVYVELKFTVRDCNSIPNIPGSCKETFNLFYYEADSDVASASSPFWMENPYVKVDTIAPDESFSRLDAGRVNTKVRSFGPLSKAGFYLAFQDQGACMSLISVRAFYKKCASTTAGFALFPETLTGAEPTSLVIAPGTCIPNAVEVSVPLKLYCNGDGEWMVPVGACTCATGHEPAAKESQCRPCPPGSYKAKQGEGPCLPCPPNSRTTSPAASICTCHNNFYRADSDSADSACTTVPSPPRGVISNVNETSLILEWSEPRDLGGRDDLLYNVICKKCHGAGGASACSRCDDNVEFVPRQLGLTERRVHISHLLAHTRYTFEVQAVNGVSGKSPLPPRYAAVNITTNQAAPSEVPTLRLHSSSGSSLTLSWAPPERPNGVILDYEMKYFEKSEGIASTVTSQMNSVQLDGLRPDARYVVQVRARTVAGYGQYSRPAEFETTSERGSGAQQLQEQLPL

T3: human EphB6 (Homo sapiens, UniProt O15197)
T3 construct: a protein of the extracellular region of each human Eph receptor fused with the SEAP protein and the His tag; made in house; host or cells: Expi293F cells
T3 sequence (O15197 32-594 limits assumed): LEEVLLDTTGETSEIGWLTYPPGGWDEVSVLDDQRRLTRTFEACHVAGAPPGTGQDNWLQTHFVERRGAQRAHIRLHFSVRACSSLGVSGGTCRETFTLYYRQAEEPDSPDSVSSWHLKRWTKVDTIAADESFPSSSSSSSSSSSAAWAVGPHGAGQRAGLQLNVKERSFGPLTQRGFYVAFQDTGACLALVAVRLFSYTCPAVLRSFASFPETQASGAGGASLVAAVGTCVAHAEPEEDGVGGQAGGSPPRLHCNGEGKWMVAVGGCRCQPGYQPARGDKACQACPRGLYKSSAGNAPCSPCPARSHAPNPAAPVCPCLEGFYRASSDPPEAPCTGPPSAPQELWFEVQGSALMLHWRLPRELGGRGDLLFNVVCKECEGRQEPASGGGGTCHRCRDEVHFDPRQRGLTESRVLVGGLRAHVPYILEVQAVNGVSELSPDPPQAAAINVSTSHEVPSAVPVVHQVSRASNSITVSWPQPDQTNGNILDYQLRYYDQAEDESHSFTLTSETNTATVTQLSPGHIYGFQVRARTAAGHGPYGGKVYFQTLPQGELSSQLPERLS

B1: 151 (antibody, V domains shown)
VH: QIQLVQSGSELKKPGASVKVSCKASGYTFTDYSMHWVRQAPGQGLKWMGWINTETGEPTYAQGFTGRFVFSLDTSVSTAYLQISSLKAEDTAVYYCARIPLYYYGSRYWYFDVWGQGTTVTVSS
VL: DIQMTQSPSSLSASVGDRVTITCRASENIYRNLAWYQQKPGKAPKLLLYAATNLADGVPSRFSGSGSGTDYTLTISSLQSEDFATYYCQHFWGTPWTFGQGTKVEIK
modifications: synthetic humanized antibody heavy chain variable region sequence; synthetic humanized antibody light chain variable region sequence
B2: 158 (antibody, V domains shown)
VH: B1 VH with I2V
VL: B1 VL with K45Q, S80P
modifications: synthetic humanized antibody heavy chain variable region sequence; synthetic humanized antibody light chain variable region sequence
B3: 157 (antibody, V domains shown)
VH: B1 VH with I2V, K46E
VL: B1 VL with K45Q, S80P
modifications: synthetic humanized antibody heavy chain variable region sequence; synthetic humanized antibody light chain variable region sequence
B4: 144 (antibody, V domains shown)
VH: B1 VH with I2V, K46E, Q62D, G63D, T65K
VL: B1 VL with K45Q, S80P
modifications: synthetic humanized antibody heavy chain variable region sequence; synthetic humanized antibody light chain variable region sequence
B5: 155 (antibody, V domains shown)
VH: B1 VH with Q62D, G63D, T65K
VL: B1 VL
modifications: synthetic humanized antibody heavy chain variable region sequence; synthetic humanized antibody light chain variable region sequence
B6: 154 (antibody, V domains shown)
VH: B1 VH with I2V, K46E, Q62D, G63D, T65K
VL: B1 VL
modifications: synthetic humanized antibody heavy chain variable region sequence; synthetic humanized antibody light chain variable region sequence
B7: 159 (antibody, V domains shown)
VH: B1 VH with I2V, Q62D, G63D, T65K
VL: B1 VL with K45Q, S80P
modifications: synthetic humanized antibody heavy chain variable region sequence; synthetic humanized antibody light chain variable region sequence
B8: 160 (antibody, V domains shown)
VH: B1 VH with Q62D, G63D, T65K
VL: B1 VL with K45Q, S80P
modifications: synthetic humanized antibody heavy chain variable region sequence; synthetic humanized antibody light chain variable region sequence
B9: 145 (antibody, V domains shown)
VH: B1 VH with I2V, Q62D, G63D, T65K
VL: B1 VL
modifications: synthetic humanized antibody heavy chain variable region sequence; synthetic humanized antibody light chain variable region sequence

For one test, the target named is T1, human EphA10. In words: Selectivity ELISA of humanized antibodies for human Eph receptor. The test is classed as binding. The note with it: coated protein 1 nM. The essentials: (§1)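 Capture ELISA: anti-6-His coat, 1% BlockAce block, Eph ECD-SEAP-His (1 nM final, Expi293F supernatant) 1 h RT, humanized Ab 1 h RT, HRP anti-IgG 1 h RT, TMB, H2SO4 stop, A450.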
On to B1, for which the “hEphA10-SEAP-: absorbance at 450 nm, percentage with respect to hEphA4-SEAP-His as 100%” value is reported as 6.6%.
Consider B2, for which the “hEphA10-SEAP-: absorbance at 450 nm, percentage with respect to hEphA4-SEAP-His as 100%” value was 6.4%.
The same measure, in the same setting: the result for B3 reads 6.1%; that for B4, 5.7%; that for B5, 5.4%.
On the same count and under the same terms, then B6, with 5.9%; and B7, with 5.3%; and B8, with 5.0%.
On to B9, for which the “hEphA10-SEAP-: absorbance at 450 nm, percentage with respect to hEphA4-SEAP-His as 100%” value came to 6.5%.

The target in the next test is T4, human EphA5 (Homo sapiens, UniProt P54756).
T4 construct: a protein of the extracellular region of each human Eph receptor fused with the SEAP protein and the His tag; made in house; host or cells: Expi293F cells (culture supernatant)
T4 sequence (P54756 25-573 limits assumed): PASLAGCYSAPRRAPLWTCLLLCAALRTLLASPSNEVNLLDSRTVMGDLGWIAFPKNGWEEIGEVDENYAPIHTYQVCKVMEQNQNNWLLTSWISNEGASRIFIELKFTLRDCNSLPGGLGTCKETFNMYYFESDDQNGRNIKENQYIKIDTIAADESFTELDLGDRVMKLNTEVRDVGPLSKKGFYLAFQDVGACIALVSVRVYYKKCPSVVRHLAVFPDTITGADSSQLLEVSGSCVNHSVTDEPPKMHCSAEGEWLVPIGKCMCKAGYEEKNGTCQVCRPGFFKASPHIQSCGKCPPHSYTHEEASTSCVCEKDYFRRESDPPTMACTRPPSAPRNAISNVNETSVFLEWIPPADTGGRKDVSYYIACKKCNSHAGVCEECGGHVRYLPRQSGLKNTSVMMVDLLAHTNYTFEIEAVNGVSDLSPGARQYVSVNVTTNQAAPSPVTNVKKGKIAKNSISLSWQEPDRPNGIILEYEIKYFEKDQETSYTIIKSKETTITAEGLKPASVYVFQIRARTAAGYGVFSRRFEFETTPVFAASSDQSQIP
The description is as above. The test is classed as binding. The conditions noted are these: coated protein 1 nM. The method, boiled down: as §1
Take B1: the “hEphA5-SEAP-: absorbance at 450 nm, percentage with respect to hEphA4-SEAP-His as 100%” value is 7.0%.
As for B2, the “hEphA5-SEAP-: absorbance at 450 nm, percentage with respect to hEphA4-SEAP-His as 100%” value is reported as 6.7%.
As to B3, the “hEphA5-SEAP-: absorbance at 450 nm, percentage with respect to hEphA4-SEAP-His as 100%” value was 6.1%.
Still for that read-out and setting: then B4, with 5.6%.
Turning to B5, the “hEphA5-SEAP-: absorbance at 450 nm, percentage with respect to hEphA4-SEAP-His as 100%” value was found to be 5.6%.
With B6, the “hEphA5-SEAP-: absorbance at 450 nm, percentage with respect to hEphA4-SEAP-His as 100%” value came to 6.3%.
B7: the “hEphA5-SEAP-: absorbance at 450 nm, percentage with respect to hEphA4-SEAP-His as 100%” value came to 5.5%.
Same read-out and setting: then B8, with 6.5%; and B9, with 6.6%.

In another test the target is T2, human EphB3. Described as above. The conditions noted are these: coated protein 1 nM. Format: binding. The essentials:
as §1
With B1, the “hEphB3-SEAP-: absorbance at 450 nm, percentage with respect to hEphA4-SEAP-His as 100%” value amounted to 7.3%.
Regarding B2, the “hEphB3-SEAP-: absorbance at 450 nm, percentage with respect to hEphA4-SEAP-His as 100%” value turned out to be 6.5%.
Still for that read-out and setting: then B3, with 6.4%; and B4, with 5.8%.
As for B5, the “hEphB3-SEAP-: absorbance at 450 nm, percentage with respect to hEphA4-SEAP-His as 100%” value stood at 5.5%.
The same measure, in the same setting: then B6, with 6.2%.
For B7, the “hEphB3-SEAP-: absorbance at 450 nm, percentage with respect to hEphA4-SEAP-His as 100%” value is 5.5%.
Consider B8, for which the “hEphB3-SEAP-: absorbance at 450 nm, percentage with respect to hEphA4-SEAP-His as 100%” value is given as 6.2%.
Same read-out and setting: then B9, with 6.7%.

A further test deals with T3, human EphB6. Described as above. The conditions noted are these: coated protein 1 nM. Format: binding. The essentials:
as §1
For B1, the “hEphB6-SEAP-: absorbance at 450 nm, percentage with respect to hEphA4-SEAP-His as 100%” value is 7.1%.
As for B2, the “hEphB6-SEAP-: absorbance at 450 nm, percentage with respect to hEphA4-SEAP-His as 100%” value amounted to 6.3%.
On to B3, for which the “hEphB6-SEAP-: absorbance at 450 nm, percentage with respect to hEphA4-SEAP-His as 100%” value amounted to 6.3%.
Consider B4, for which the “hEphB6-SEAP-: absorbance at 450 nm, percentage with respect to hEphA4-SEAP-His as 100%” value was 5.9%.
In the case of B5, the “hEphB6-SEAP-: absorbance at 450 nm, percentage with respect to hEphA4-SEAP-His as 100%” value came to 5.6%.
The same measure, in the same setting: the result for B6 reads 6.4%.
Turning to B7, the “hEphB6-SEAP-: absorbance at 450 nm, percentage with respect to hEphA4-SEAP-His as 100%” value is 5.5%.
For the molecule B8, the “hEphB6-SEAP-: absorbance at 450 nm, percentage with respect to hEphA4-SEAP-His as 100%” value is 6.2%.
On to B9, for which the “hEphB6-SEAP-: absorbance at 450 nm, percentage with respect to hEphA4-SEAP-His as 100%” value is listed as 6.6%.
